Data from publication doi:10.1101/2024.11.11.622897.

Target: T1, DdaA (A. baumannii), AbDdaA (Acinetobacter baumannii ATCC 17978, UniProt V5VBS3 1-335)
T1 sequence: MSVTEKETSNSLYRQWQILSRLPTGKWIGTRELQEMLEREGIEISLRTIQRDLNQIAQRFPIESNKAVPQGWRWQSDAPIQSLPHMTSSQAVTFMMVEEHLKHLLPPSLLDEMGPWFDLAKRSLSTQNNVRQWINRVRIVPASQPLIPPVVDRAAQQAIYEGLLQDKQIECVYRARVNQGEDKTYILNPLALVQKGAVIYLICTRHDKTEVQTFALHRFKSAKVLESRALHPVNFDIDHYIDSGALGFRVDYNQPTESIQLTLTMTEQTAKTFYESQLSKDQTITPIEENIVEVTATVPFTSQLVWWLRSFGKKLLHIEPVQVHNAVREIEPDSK
Assay: EMSA

B1: recA promoter motif WT (AR-DDRM) (dsDNA)
DNA 1: TTTCCGGTCTGGGCGACACAATATGACGTGTAATTTTAACC
DNA 2: GGTTAAAATTACACGTCATATTGTGTCGCCCAGACCGGAAA
binding result: binds
